From article PMC8478808 (Stroke, 2021) come the findings set out here.

In the experiment the target is T1, recombinant mouse CD200R1 Fc chimera (mouse, UniProt Q9ES57 26-238).
T1 sequence (looked up): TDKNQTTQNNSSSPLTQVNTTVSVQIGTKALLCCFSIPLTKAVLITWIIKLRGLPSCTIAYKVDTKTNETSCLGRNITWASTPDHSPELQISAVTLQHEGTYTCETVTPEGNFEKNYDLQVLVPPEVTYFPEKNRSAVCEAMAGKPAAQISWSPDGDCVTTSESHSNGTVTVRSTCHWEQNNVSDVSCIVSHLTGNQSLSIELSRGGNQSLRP
Nature of the experiment: ELISA. In general terms: ELISA stands for enzyme-linked immunosorbent assay.

B1: biotinylated recombinant mouse CD200-Fc Chimera (carrier-free) (Fc fusion, UniProt O54901 31-232, looked up)
chain: QVEVVTQDERKALHTTASLRCSLKTSQEPLIVTWQKKKAVSPENMVTYSKTHGVVIQPAYKDRINVTELGLWNSSITFWNTTLEDEGCYMCLFNTFGSQKVSGTACLTLYVQPIVHLHYNYFEDHLNITCSATARPAPAISWKGTGTGIENSTESHFHSNGTTSVTSILRVKDPKTQVGKEVICQVLYLGNVIDYKQSLDKG
modifications: biotin (biotinylated; site not stated)
For the molecule B1, the binding result was “binds”.
